The target in the assay is cSH2 domain of PLCγ (isolated, solution experiments). Put plainly: NMR titration.

B1: activated FGFR2 kinase, mono-phosphorylated on Tyr-769 (FGFR2K^pY769) (domain or fragment)
chain: MGSSHHHHHHSQDPMLAGVSEFELPEDPKWEFPRDKLTLGKPLGEGAFGQVVMAEAVGIDKDKPKEAVTVAVKMLKDDATEKDLSDLVSEMEMMKMIGKHKNIINLLGACTQDGPLYVIVAYASKGNLREYLRARRPPGMELSPDINRVPEEQMTFKDLVSCTYQLARGMEYLASQKCIHRDLAARNVLVTENNVMKIADFGLARDINNIDFFKETTNGRLPVKWMAPEALFDRVYTHQSDVWSFGVLMWEIFTLGGSPYPGIPVEELFKLLKEGHRMDKPANCTNELYMMMRDCWHAVPSQRPTFKQLVEDLDRILTLTTNEEYLDLSQPLEQ
modifications: phosphotyrosine at 769
Regarding B1, the “stoichiometry N” value was 1 FGFR2K^pY769 per cSH2.

The term stoichiometry N denotes a count of units in the complex or per binding partner.

Values taken from paper PMC4838190 (Molecular cell, 2015).
